Experimental data taken from US20190135928A1 (Bristol-Myers Squibb, published 2019).
Where a chain is given by its changes, count along the chain named.

Key:
Test in all cases: cell-based or functional assay
human TL1A (in-house) [1] = target: T1, human TL1A (in-house) (human, UniProt O95150 57-251, limits assumed)
T1 sequence: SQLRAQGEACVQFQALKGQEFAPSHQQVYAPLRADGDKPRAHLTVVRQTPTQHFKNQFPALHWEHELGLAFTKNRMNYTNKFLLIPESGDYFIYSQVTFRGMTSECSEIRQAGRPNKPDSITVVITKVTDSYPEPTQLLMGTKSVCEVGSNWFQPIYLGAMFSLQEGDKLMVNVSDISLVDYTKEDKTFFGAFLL

human TL1A (in-house) [2] = target: T1, human TL1A (in-house); remark: listed apart in the source
human TL1A (in-house) [3] = target: T1, human TL1A (in-house); remark: listed apart in the source
human TL1A (in-house) [4] = target: T1, human TL1A (in-house); remark: listed apart in the source
human TL1A (in-house) [5] = target: T1, human TL1A (in-house); remark: listed apart in the source
[6] = target: T2, cynomolgus TL1A (in-house) (cynomolgus monkey, UniProt G7PRK8 57-251)
T2 sequence: T1 sequence with F13L, A15D, F54L, I93V

human TL1A (in-house) [7] = target: T1, human TL1A (in-house); remark: listed apart in the source

B1: TL1A antibody 10A4.F7.2E8 huIgG4 (antibody, V domains shown)
VH: QLQLQESGPGLVKPSETLSLTCTVSGGSISSRSYYWGWIRQPPGKGLEWIGSIYYNGRTYYNPSLKSRVTISVDTSKNQFSLKLSSVTAADTAVYYCAREDYGDYGAFDIWGQGTMVTVSS
VL: AIQLTQSPSSLSASVGDRVTITCRASQGISSALAWYQQKPGKAPKLLIYDASSLESGVPSRFSGSGSGTDFTLTISSLQPEDFATYYCQQFNSYPLTFGGGTKVEIKR
EC50, TL1A + IL-12 + IL-18 driven IFNg (Hu Tcells) (2.45 mg/ml), Donor B, ELN ref 99932-004774 (human TL1A (in-house) [1]): 0.319 nM | EC50, TL1A + IL-12 + IL-18 driven IFNg (Hu Tcells) (2.45 mg/ml), Donor B, ELN ref 99932-004955 (human TL1A (in-house) [1]): 0.211 nM | EC50, TL1A + IL-12 + IL-18 driven IFNg (Hu Tcells) (5.9 mg/ml), Donor A, ELN ref 99932-004774 (human TL1A (in-house) [2]): 0.171 nM | EC50, TL1A + IL-12 + IL-18 driven IFNg (Hu Tcells) (5.9 mg/ml), Donor A, ELN ref 99932-004955 (human TL1A (in-house) [2]): 0.273 nM | EC50, TL1A + IL-12 + IL-18 driven IFNg (Hu Tcells) (5.9 mg/ml), Donor B, ELN ref 99932-004774 (human TL1A (in-house) [2]): 0.243 nM | EC50, TL1A + IL-12 + IL-18 driven IFNg (Hu Tcells) (5.9 mg/ml), Donor B, ELN ref 99932-004955 (human TL1A (in-house) [2]): 0.182 nM | EC50, TL1A + IL-12 + IL-18 driven IFNg (Hu Tcells) (4.8 mg/ml), Donor A, ELN ref 97305-082 (human TL1A (in-house) [3]): 0.162 nM | EC50, TL1A + IL-12 + IL-18 driven IFNg (Hu Tcells) (4.8 mg/ml), Donor A, ELN ref 99932-003797 (human TL1A (in-house) [3]): 0.303 nM | EC50, TL1A + IL-12 + IL-18 driven IFNg (Hu Tcells) (4.8 mg/ml), Donor A, ELN ref 99932-004083 (human TL1A (in-house) [3]): 0.27 nM | EC50, TL1A + IL-12 + IL-18 driven IFNg (Hu Tcells) (4.8 mg/ml), Donor A, ELN ref 99932-004084 (human TL1A (in-house) [3]): 0.316 nM | EC50, TL1A + IL-12 + IL-18 driven IFNg (Hu Tcells) (4.8 mg/ml), Donor A, ELN ref 99932-004439 (human TL1A (in-house) [3]): 0.262 nM | EC50, TL1A + IL-12 + IL-18 driven IFNg (Hu Tcells) (4.8 mg/ml), Donor A, ELN ref 99932-004774 (human TL1A (in-house) [3]): 0.177 nM | EC50, TL1A + IL-12 + IL-18 driven IFNg (Hu Tcells) (4.8 mg/ml), Donor A, ELN ref 99932-004955 (human TL1A (in-house) [3]): 0.193 nM | EC50, TL1A + IL-12 + IL-18 driven IFNg (Hu Tcells) (4.8 mg/ml), Donor A, ELN ref 99932-005751 (human TL1A (in-house) [3]): 0.216 nM | EC50, TL1A + IL-12 + IL-18 driven IFNg (Hu Tcells) (4.8 mg/ml), Donor B, ELN ref 97305-082 (human TL1A (in-house) [3]): 0.143 nM | EC50, TL1A + IL-12 + IL-18 driven IFNg (Hu Tcells) (4.8 mg/ml), Donor B, ELN ref 99932-003797 (human TL1A (in-house) [3]): 0.361 nM | EC50, TL1A + IL-12 + IL-18 driven IFNg (Hu Tcells) (4.8 mg/ml), Donor B, ELN ref 99932-004084 (human TL1A (in-house) [3]): 0.345 nM | EC50, TL1A + IL-12 + IL-18 driven IFNg (Hu Tcells) (4.8 mg/ml), Donor B, ELN ref 99932-004439 (human TL1A (in-house) [3]): 0.157 nM | EC50, TL1A + IL-12 + IL-18 driven IFNg (Hu Tcells) (4.8 mg/ml), Donor B, ELN ref 99932-004774 (human TL1A (in-house) [3]): 0.267 nM | EC50, TL1A + IL-12 + IL-18 driven IFNg (Hu Tcells) (4.8 mg/ml), Donor B, ELN ref 99932-004955 (human TL1A (in-house) [3]): 0.287 nM | EC50, TL1A + IL-12 + IL-18 driven IFNg (Hu Tcells) (4.8 mg/ml), Donor B, ELN ref 99932-005751 (human TL1A (in-house) [3]): 0.138 nM | EC50, TL1A + IL-12 + IL-18 driven IFNg (Hu NKcells)(2.45 mg/ml), Donor A, ELN ref 97305-070 (human TL1A (in-house) [4]): 0.16 nM | EC50, TL1A + IL-12 + IL-18 driven IFNg (Hu NKcells)(2.45 mg/ml), Donor A, ELN ref 97305-075 (human TL1A (in-house) [4]): 0.147 nM | EC50, TL1A + IL-12 + IL-18 driven IFNg (Hu NKcells)(2.45 mg/ml), Donor B, ELN ref 97305-070 (human TL1A (in-house) [4]): 0.253 nM | EC50, TL1A + IL-12 + IL-18 driven IFNg (Hu NKcells)(2.45 mg/ml), Donor B, ELN ref 97305-075 (human TL1A (in-house) [4]): 0.162 nM | EC50, TL1A + IL-12 + IL-18 driven IFNg (Hu WB)(2.45 mg/ml), Donor A, ELN ref 97305-029 (human TL1A (in-house) [5]): 0.32 nM | EC50, TL1A + IL-12 + IL-18 driven IFNg (Hu WB)(2.45 mg/ml), Donor A, ELN ref 97305-033 (human TL1A (in-house) [5]): 0.284 nM | EC50, TL1A + IL-12 + IL-18 driven IFNg (Hu WB)(2.45 mg/ml), Donor B, ELN ref 97305-029 (human TL1A (in-house) [5]): 0.54 nM | EC50, TL1A + IL-12 + IL-18 driven IFNg (Hu WB)(2.45 mg/ml), Donor B, ELN ref 97305-033 (human TL1A (in-house) [5]): 0.108 nM | EC50, TL1A + IL-12 + IL-18 driven IFNg (Cyno PBMCs)(2.45 mg/ml), Donor A, ELN ref 97305-067 [6]: 0.122 nM | EC50, TL1A + IL-12 + IL-18 driven IFNg (Cyno PBMCs)(2.45 mg/ml), Donor A, ELN ref 97305-071 [6]: 0.154 nM | EC50, TL1A + IL-12 + IL-18 driven IFNg (Cyno PBMCs)(2.45 mg/ml), Donor A, ELN ref 97305-074 [6]: 0.105 nM | EC50, TL1A + IL-12 + IL-18 driven IFNg (Cyno PBMCs)(2.45 mg/ml), Donor A, ELN ref 97305-076 [6]: 0.097 nM | EC50, TL1A + IL-12 + IL-18 driven IFNg (Cyno PBMCs)(2.45 mg/ml), Donor B, ELN ref 97305-067 [6]: 0.164 nM | EC50, TL1A + IL-12 + IL-18 driven IFNg (Cyno PBMCs)(2.45 mg/ml), Donor B, ELN ref 97305-071 [6]: 0.133 nM | EC50, TL1A + IL-12 + IL-18 driven IFNg (Cyno PBMCs)(2.45 mg/ml), Donor B, ELN ref 97305-074 [6]: 0.129 nM | EC50, TL1A + IL-12 + IL-18 driven IFNg (Cyno PBMCs)(2.45 mg/ml), Donor B, ELN ref 97305-076 [6]: 0.093 nM | EC50, TL1A-driven phospho-NFkB in Hu Whole Blood(2.45 mg/ml), CD3+CD4-CD8- T-cells, Donor A, no ELN ref printed in this row (human TL1A (in-house) [7]): 0.83 nM | EC50, TL1A-driven phospho-NFkB in Hu Whole Blood(2.45 mg/ml), CD4+ T-cells, Donor A, ELN ref A010F-003 (human TL1A (in-house) [7]): 2.64 nM | EC50, TL1A-driven phospho-NFkB in Hu Whole Blood(2.45 mg/ml), CD4+ T-cells, Donor A, ELN ref A010F-007 (human TL1A (in-house) [7]): 0.77 nM | EC50, TL1A-driven phospho-NFkB in Hu Whole Blood(2.45 mg/ml), CD4+ T-cells, Donor B, ELN ref A010F-003 (human TL1A (in-house) [7]): 2.94 nM | EC50, TL1A-driven phospho-NFkB in Hu Whole Blood(2.45 mg/ml), CD4+ T-cells, Donor B, ELN ref A010F-007 (human TL1A (in-house) [7]): 3.24 nM | EC50, TL1A-driven phospho-NFkB in Hu Whole Blood(2.45 mg/ml), CD8+ T-cells, Donor A, no ELN ref printed in this row (human TL1A (in-house) [7]): 0.85 nM
